Drawing on patent US20200157248A1, this text covers ELISA OD for 5 molecules.

Among the targets are mutF4/Fmut4; mutC4/Cmut4; Fwt.
Holding throughout (experiment): ELISA, VHH on coated antibody

B1: VHH clone 8GO9 (VHH)
VHH: QVQLVESGGGLVQAGGSLRLSCAASGRTFSRYGMSWFRQAPGKEREFVATISRGGSSTNYADSTKGRFTVSRDNAKNTVVLQMNSLKPEDTAVYYCAADTNWPVGAYEYWGQGTQVTVSS
With B1, the ELISA OD in the experiment with mutF4/Fmut4 came out at 0.153 OD; with mutC4/Cmut4, 0.068 OD; in the experiment with Fwt, 0.114 OD.

B2: VHH clone 8G11 (VHH)
VHH: EVQLVESGGGLVQAGGSLRLSCAASGRTFDIYTMGWFRQVPGKEREFVADIGRAGGTTHYADSVKGRFAISRDNANDAVHLQMNSLKPEDTAVYYCATKVVPRAGRRLLDYDYWGQGTQVTVSS
For the molecule B2, the ELISA OD with mutF4/Fmut4 worked out at 0.123 OD; with mutC4/Cmut4, 0.054 OD; with Fwt, 0.073 OD.

B3: VHH clone 8B03 (VHH)
VHH: EVQLVESGGGLVQPGGSLRLSCRASGAIFSINHMGWYRQAPGKQRELVATITSGGSTNYADSVKGRFTISRDNAKNTVYLQMNSLKPEDTAVYSCNLDWTTGWGSRRDYWGQGTQVTVSS
On to B3, for which the ELISA OD with mutF4/Fmut4 turned out to be 0.221 OD; with mutC4/Cmut4, 0.068 OD; in the experiment with Fwt, 0.069 OD.

B4: VHH clone 8G1 (VHH)
VHH: QVQLVESGGGLVQPGGSLRLSCRASGAIFSINHMGWYRQAPGKQRELVATITSGGSTNYADSVKGRFTISRDNAKNTVYLQMNSLKPEDTAVYSCNLDWTTGWGSRRDYWGQGTQVTVSS
As to B4, the values for the ELISA OD with mutF4/Fmut4, with mutC4/Cmut4 and with Fwt were 0.128 OD, 0.068 OD and 0.079 OD, respectively.

B5: VHH clone 8G12 (VHH)
VHH: EVQLVESGGGLVRAGGSLRLSCAASGSIFGTTNMGWYRQAPGTQRDLVATINNGGITNYADSVKGRFTISTDYTKNTVYLQMDRLKPEDTAVYYCNAEYHFRPPSWGQGTQVTVSS
With B5, the ELISA OD with mutF4/Fmut4 stood at 0.159 OD; with mutC4/Cmut4, 0.2 OD; in the experiment with Fwt, 0.063 OD.
